Test results from patent publication US20200270347A1 (Hoffmann-La Roche, published 2020).
Where a chain is given by its changes, count along the chain named. In names and notes the source's numbering stands.

Tests used:
[1] = molecular target: T1, heterodimer of human CD3 delta and CD3 epsilon ectodomains fused to a human Fc domain with knob-into-hole … (human); test: SPR, relative active concentration after stress
T1 construct: Each entry is the whole fusion chain (ectodomain, stalk, Fc, Avi-tag); also called recombinant CD3; recombinant human CD3

[2] = molecular target: T1, heterodimer of human CD3 delta and CD3 …; test: SPR, TCB captured with anti-PGLALA antibody, CD3 antigen as analyte, 1:1 Langmuir; CD3opt; human CD3
[3] = molecular target: T2, EGFRvIII expressed on the cell surface (CHO-EGFRvIII, DK-MG, U87MG-EGFRvIII cells) (human, UniProt P00533 298-1210); test: flow cytometry on U87MG-EGFRvIII cells, fluorescently labelled anti-human Fc secondary antibody
T2 construct: The cell line of each result is named under assay; Species is stated for the U87 transfectant (human EGFRvIII protein) and the entry; also called EGFRvIII positive cells

[4] = molecular target: T3, EGFRvIII-ECD avi his (human); test: SPR, TCB captured with anti-Fc antibody, EGFRvIII-ECD avi his as analyte, 1:1 fit; CD3opt
T3 construct: Extracellular domain of human EGFRvIII fused to an Avi-tag and a His-tag at the C-terminus; the entry is the whole construct; also called recombinant EGFRvIII; EGFRvIII antigen

[5] = molecular target: T4, heterodimer of cynomolgus CD3 delta and CD3 epsilon ectodomains fused to a human Fc domain with … (cynomolgus); test: SPR, TCB captured with anti-PGLALA antibody, CD3 antigen as analyte, 1:1 Langmuir; CD3opt; cynomolgus CD3
T4 construct: Each entry is the whole fusion chain; also called Cynomolgus CD3 epsilon stalk-Fc(knob)-Avi / Cynomolgus CD3 delta stalk-Fc(hole)-Avi

[6] = molecular target: T1, heterodimer of human CD3 delta and CD3 …; test: SPR, TCB captured with anti-PGLALA antibody, CD3 antigen as analyte, 1:1 Langmuir; CD3orig; human CD3
[7] = molecular target: T3, EGFRvIII-ECD avi his; test: SPR, TCB captured with anti-Fc antibody, EGFRvIII-ECD avi his as analyte, 1:1 fit; CD3orig
[8] = molecular target: T5, wild-type EGFR on MKN-45 cells (human, UniProt P00533 25-1210); test: flow cytometry on MKN-45 cells (wild-type EGFR)
T5 construct: MKN-45 is the wild-type EGFR line used to exclude crossreactivity; also called EGFRwt

[9] = molecular target: T2, EGFRvIII expressed on the cell surface …; test: flow cytometry on U87MG-EGFRvIII cells, IgG PGLALA
[10] = molecular target: T3, EGFRvIII-ECD avi his; test: SPR, PGLALA IgG captured with anti-PGLALA antibody, EGFRvIII-ECD avi his as analyte, 1:1 Langmuir, 25° C.
[11] = molecular target: T2, EGFRvIII expressed on the cell surface …; test: flow cytometry on CHO-EGFRvIII cells, IgG
[12] = molecular target: T3, EGFRvIII-ECD avi his; test: SPR, ECD antigen captured with anti-His, single injection of antibody at 500 nM
[13] = molecular target: EGFRwt ECD antigen (His-tagged, captured with anti-His) (human, UniProt P00533 25-645); test: as above
[14] = molecular target: T2, EGFRvIII expressed on the cell surface …; test: flow cytometry on CHO-EGFRvIII cells, TCB

B1: EGFRvIII TCB CD3opt (EGFRvIII binder P063.056) (bispecific antibody, human IgG1, kappa, L234A L235A)
heavy 1: not shown
heavy 2: EVQLVQSGAEVKKPGESLKISCKGSGYSFDSYWIAWVRQMPGKGLEWMGVIHPYDSDTRYSPSFQGQVTISADKSISTAYLQWSSLKASDTAMYYCARVSRSSYAFDYWGQGTLVTVSSASTKGPSVFPLAPSSKSTSGGTAALGCLVEDYFPEPVTVSWNSGALTSGVHTFPAVLQSSGLYSLSSVVTVPSSSLGTQTYICNVNHKPSNTKVDEKVEPKSCDKTHTCPPCPAPEAAGGPSVFLFPPKPKDTLMISRTPEVTCVVVDVSHEDPEVKFNWYVDGVEVHNAKTKPREEQYNSTYRVVSVLTVLHQDWLNGKEYKCKVSNKALGAPIEKTISKAKGQPREPQVCTLPPSRDELTKNQVSLSCAVKGFYPSDIAVEWESNGQPENNYKTTPPVLDSDGSFFLVSKLTVDKSRWQQGNVFSCSVMHEALHNHYTQKSLSLSP
light 1: not shown
light 2: EVQLLESGGGLVQPGGSLRLSCAASGFQFSSYAMNWVRQAPGKGLEWVSRIRSKYNNYATYYADSVKGRFTISRDDSKNTLYLQMNSLRAEDTAVYYCVRHTTFPSSYVSYYGYWGQGTLVTVSSASVAAPSVFIFPPSDEQLKSGTASVVCLLNNFYPREAKVQWKVDNALQSGNSQESVTEQDSKDSTYSLSSTLTLSKADYEKHKVYACEVTHQGLSSPVTKSFNRGEC
notes: 2+1 IgG CrossFab, inverted, with charge modifications; also called EGFRvIII TCB P063.056 with CD3opt; 2+1 format
binding activity to CD3 after 2 weeks at pH 7.4, 37° C., relative to 2 weeks at pH 6, -80° C. [1]: > 90% | Kd [2]: 30 nM | binding result [3]: binds | Kd [4]: 6 nM | Kd [5]: 20 nM

B2: EGFRvIII TCB CD3orig (EGFRvIII binder P063.056) (bispecific antibody, human IgG1, kappa, L234A L235A)
heavy 1: not shown
heavy 2: B1 heavy 2
light 1: not shown
light 2: B1 light 2 with Q28T, S31T, T102G, T103N, P105G, S106N, Y111W, Y112F, G113A
notes: 2+1 IgG CrossFab, inverted, with charge modifications; also called EGFRvIII TCB P063.056 with CD3orig
EC50 (read off the curve) [3]: ~9 nM | Kd [6]: 40 nM | Kd [7]: 6 nM

B3: EGFRvIII antibody P056.021 IgG1 PGLALA (antibody, V domains shown)
VH: EVQLVQSGAEVKKPGESLKISCKGSGYSFDSYWIAWVRQMPGKGLEWMGVIHPYDSDTRYSPSFQGQVTISADKSISTAYLQWSSLKASDTAMYYCARVSRSSYAFDYWGQGTLVTVSS
VL: not shown
notes: Human IgG1 with P329G L234A L235A; also called P056.021 (parental)
binding result [8]: no binding (tested: about 140 nM) | EC50 (read off the curve) [9]: ~4 nM | Kd [10]: 35 nM | EC50 [11]: 16.5 nM | response units [12]: > 50 RU | response units [13]: < 5 RU

B4: EGFRvIII TCB P056.021 (CD3orig) (bispecific antibody, V domains shown)
VH 1: B3 VH
VL 1: not shown
VH 2: not shown
VL 2: QAVVTQEPSLTVSPGGTVTLTCGSSTGAVTTSNYANWVQEKPGQAFRGLIGGTNKRAPGTPARFSGSLLGGKAALTLSGAQPEDEAEYYCALWYSNLWVFGGGTKLTVL
notes: also called parental EGFRvIII TCB P056.021; P056.021 EGFRvIII TCB with CD3orig
binding result [8]: no binding (tested: about 140 nM) | EC50 [14]: 13 nM
